Our source for the binding result, rank by binding signal to PSA (among 405 top sequences) and rank in the list of 405 sequences with the highest average signal intensity values is patent US20190086411A1 (ROCHE SEQUENCING SOLUTIONS, published 2019).

The target of one assay is T1, human prostate specific antigen (PSA) labelled with biotin (human, UniProt P07288 25-261, labelled with biotin using EZ-Link NHS-PEG4-biotinylation kit).
T1 construct: Applied in solution at 100 ng/ml to the peptide arrays and detected with Streptavidin Cy5
T1 sequence (P07288 25-261 limits assumed): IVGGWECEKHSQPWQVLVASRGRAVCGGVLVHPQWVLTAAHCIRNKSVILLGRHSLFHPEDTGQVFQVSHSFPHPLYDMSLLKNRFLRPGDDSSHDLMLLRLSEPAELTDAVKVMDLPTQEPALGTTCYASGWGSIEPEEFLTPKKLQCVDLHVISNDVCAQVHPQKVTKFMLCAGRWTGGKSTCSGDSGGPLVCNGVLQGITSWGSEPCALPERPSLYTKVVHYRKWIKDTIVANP
The assay is described as follows: Double Substitution/Deletion Array, biotin-PSA, Streptavidin Cy5 detection. The method, then:
(§1) Binding Assay: PSA labelled with biotin using EZ-Link NHS-PEG4-biotinylation kit (Thermo Fisher Sci., Inc. Rockford, Ill.) was incubated in SecureSeal hybridization chamber (Grace Bio-Labs, Bend, Oreg.) at concentration 100 ng/ml in 1×TE binding buffer with 1% alkali soluble casein at 25° C. for 12 hrs. Array was washed 3× with 1×TE buffer and stained with Streptavidin Cy5 in 1× binding buffer with 1% alkali soluble casein at 25 C for 1 hr, and washed 3× with 1×TE buffer and finally with 0.1×TE buffer and scanned using a 2 micrometer MS200 scanner (Roche/Nimblegen, Madison, Wis.).
The top sequences selected from the Extension Array (Table 2, column 3) were used to design Double Substitution/Deletion Arrays as shown in column 4 of Table 2. Single and double substitution scan performed as described in Example 3 were used to optimize PSA binders to achieve highest signal intensity and confirm specificity of each amino acid in motif sequence (Table 2, column 5).
QSCRSILYGDG: the binding result is recorded as “binds”.

Regarding ASEWTVYAGNK, the binding result is reported as “binds”.

On to GTGWEVHLGKG, for which the binding result was “binds”.

With GTGFEVYIPGA, the binding result is recorded as “binds”.

The target in a further assay is T1, human prostate specific antigen (PSA) …. The assay is described as follows: Extension Array (160,000 members, 5 replicates), biotin-PSA, Streptavidin Cy5 detection. The method, then:
as §1
Two dominant F[QET]VY[LI] and W[QET]V[YH][LAV] clusters described above were related by having similar amino acids F or W at position 1 and V at position 3. To find other possible binder motifs we excluded sequences with these features from the 5-mer Array data and performed PEPLIB analysis with top 32 sequences from the remaining dataset as shown in FIG. 11. […] Four sequences, FEVYL (SEQ ID NO: 1), WTVYA (SEQ ID NO: 2), WEVHL (SEQ ID NO: 3), and RSILY (SEQ ID NO: 4), selected from the 5-mer Array were extended by all possible dimers at both N- and C-terminus using all 20 natural amino acids (×) to design Extension Arrays each of them consisting of 160,000 members synthesized in 5 replicates (Table 2). Top twelve sequences for each library selected by signal intensity of PSA binding were used to generate Logo plots shown in FIG. 12. […] For example, FEVYL motif (SEQ ID NO: 1) prefers exclusively P at the C-terminus, WTVYA motif (SEQ ID NO: 2) prefers acidic amino acid either D or E at the N-terminus and G at the C-terminus, whereas RSILY motif (SEQ ID NO: 4) prefers C at the C-terminus, an amino acid that was not present in the 5-mer arrays.
With NGFEVYLPG, the binding result is “binds”.

Take SCRSILYGQ: the binding result is reported as “binds”.

With SEWTVYAGN, the binding result was “binds”.

Take TGWEVHLGK: the binding result is recorded as “binds”.

For a further assay, the target named is human prostate specific antigen (PSA) labelled with biotin (human) (UniProt P07288). The assay is described as follows: 5-mer peptide microarray, biotin-PSA 100 ng/ml, Streptavidin Cy5 detection.
Sequence of human prostate specific antigen (PSA) labelled with biotin (human) (P07288 25-261 limits assumed): as above
For the molecule WEVHL (peptide), the rank by binding signal to PSA (among 405 top sequences) amounted to 28 rank.

RSILY (peptide) yielded a rank in the list of 405 sequences with the highest average signal intensity of 307 rank.

Regarding WTVYA (peptide), the rank by binding signal to PSA (among 405 top sequences) amounted to 3 rank.

The molecule FEVYL (peptide) had a rank by binding signal to PSA (among 405 top sequences) of 1 rank.
